The text below walks through data of article PMC11563578 (eLife, 2024).

The target of this assay is T1, RNA polymerase II subunit Rpb1 (S. cerevisiae, UniProt P04050 1-1733).
T1 construct: Rpb1, largest subunit of yeast RNA polymerase II; source: endogenous, S. cerevisiae; also the Δrpb4 RPB2-HFH strain
Kind of assay: cross-linking; affinity-purified holo-pol II and ΔRpb4 pol II cross-linked with C1q2/C2q2 Q2linkers in a crosslinker swapping experiment (experiments I and II), pooled, MS; crosslinks identified with pLink2 and Nexus against the 12 pol II subunits. To be noted: both partners purified.

T1 sequence (P04050 whole entry): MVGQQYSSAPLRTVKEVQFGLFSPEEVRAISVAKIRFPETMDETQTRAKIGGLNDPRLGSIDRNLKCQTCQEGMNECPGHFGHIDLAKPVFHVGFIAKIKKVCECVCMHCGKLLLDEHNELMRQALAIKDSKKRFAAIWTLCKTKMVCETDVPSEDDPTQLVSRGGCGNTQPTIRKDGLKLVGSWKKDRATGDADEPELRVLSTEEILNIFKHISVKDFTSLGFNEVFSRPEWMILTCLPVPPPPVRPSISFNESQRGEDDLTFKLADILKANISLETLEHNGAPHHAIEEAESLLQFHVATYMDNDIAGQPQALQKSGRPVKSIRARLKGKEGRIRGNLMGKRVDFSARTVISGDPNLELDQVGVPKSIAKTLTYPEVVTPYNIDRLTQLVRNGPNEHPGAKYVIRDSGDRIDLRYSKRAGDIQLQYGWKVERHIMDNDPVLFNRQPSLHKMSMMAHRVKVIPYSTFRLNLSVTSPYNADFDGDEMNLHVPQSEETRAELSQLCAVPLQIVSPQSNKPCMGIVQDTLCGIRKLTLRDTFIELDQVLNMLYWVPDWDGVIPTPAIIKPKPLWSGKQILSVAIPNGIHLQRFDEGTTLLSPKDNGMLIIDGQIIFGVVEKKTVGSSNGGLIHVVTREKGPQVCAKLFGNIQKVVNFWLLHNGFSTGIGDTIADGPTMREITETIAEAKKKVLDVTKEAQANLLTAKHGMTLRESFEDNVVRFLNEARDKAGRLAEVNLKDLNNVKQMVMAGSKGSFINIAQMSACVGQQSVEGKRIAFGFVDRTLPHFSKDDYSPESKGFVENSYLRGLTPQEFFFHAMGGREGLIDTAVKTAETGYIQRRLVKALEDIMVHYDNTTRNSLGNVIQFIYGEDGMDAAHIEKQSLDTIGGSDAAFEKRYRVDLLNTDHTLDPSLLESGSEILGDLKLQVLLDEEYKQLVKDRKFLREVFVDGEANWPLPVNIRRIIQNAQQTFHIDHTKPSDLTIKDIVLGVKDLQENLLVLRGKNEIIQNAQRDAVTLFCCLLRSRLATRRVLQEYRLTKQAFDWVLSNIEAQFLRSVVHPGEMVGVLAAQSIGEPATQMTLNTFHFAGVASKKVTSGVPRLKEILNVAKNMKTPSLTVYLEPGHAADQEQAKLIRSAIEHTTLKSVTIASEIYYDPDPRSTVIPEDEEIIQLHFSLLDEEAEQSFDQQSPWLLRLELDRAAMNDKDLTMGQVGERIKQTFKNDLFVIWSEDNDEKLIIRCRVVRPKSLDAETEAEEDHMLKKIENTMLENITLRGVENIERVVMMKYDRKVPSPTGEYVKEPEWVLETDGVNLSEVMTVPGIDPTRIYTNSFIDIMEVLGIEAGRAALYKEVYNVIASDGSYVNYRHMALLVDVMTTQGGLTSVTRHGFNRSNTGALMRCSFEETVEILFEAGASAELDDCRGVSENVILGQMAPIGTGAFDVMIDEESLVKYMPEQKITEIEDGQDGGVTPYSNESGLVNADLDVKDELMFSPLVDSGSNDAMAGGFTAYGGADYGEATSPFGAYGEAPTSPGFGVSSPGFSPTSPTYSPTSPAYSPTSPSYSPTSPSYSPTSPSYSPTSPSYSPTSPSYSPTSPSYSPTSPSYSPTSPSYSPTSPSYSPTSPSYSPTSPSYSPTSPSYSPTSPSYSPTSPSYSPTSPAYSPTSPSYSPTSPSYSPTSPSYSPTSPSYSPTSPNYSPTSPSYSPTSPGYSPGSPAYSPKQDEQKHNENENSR

B1: RNA polymerase II subunit Rpb7 (natural protein, S. cerevisiae, UniProt P34087 1-171, looked up)
chain: MFFIKDLSLNITLHPSFFGPRMKQYLKTKLLEEVEGSCTGKFGYILCVLDYDNIDIQRGRILPTDGSAEFNVKYRAVVFKPFKGEVVDGTVVSCSQHGFEVQVGPMKVFVTKHLMPQDLTFNAGSNPPSYQSSEDVITIKSRIRVKIEGCISQVSSIHAIGSIKEDYLGAI
notes: Rpb7, subunit of yeast RNA polymerase II; also called Rbp7; source: endogenous, S. cerevisiae; sub-stoichiometric from the Δrpb4 RPB2-HFH strain
Regarding B1, the binding result is reported as “binds”.

B2: RNA polymerase II subunit Rpb9 (natural protein, S. cerevisiae, UniProt P27999 1-122, looked up)
chain: MTTFRFCRDCNNMLYPREDKENNRLLFECRTCSYVEEAGSPLVYRHELITNIGETAGVVQDIGSDPTLPRSDRECPKCHSRENVFFQSQQRRKDTSMVLFFVCLSCSHIFTSDQKNKRTQFS
notes: Rpb9, subunit of yeast RNA polymerase II; source: endogenous, S. cerevisiae; also the Δrpb4 RPB2-HFH strain
Take B2: the binding result is on record as “binds”.
